Target: F-actin (skeletal muscle actin) (Oryctolagus cuniculus, UniProt P68135)
Experiment: high-speed co-sedimentation

Kd: 940 nM
B1: TRIOBP-4 isoform 4 (protein)
chain: MSMEQDTRALLPTQGTAWATASAPVARLQGPQGDSHQACSQEPHSPSSAEAPYCDLPRCPPALQNPLRTTTCVGQSVHSLGLGLGQEPQRVWSPTTALPAEGPAAAPKNRHQDSEGIPYLEGLARSSCTDDNDNKDEDEDPNSNTSSSQDSNTPHDTSNSSSVDWDTTERPGVVPSRNRLTEMIPRRPQEGLRADSARKATRSPARGDTAGQRKENSGSGGQSAGQHWAKLRSESGYFSLERQRSGQTQASSGTPPSGPRGTTQASSAQRDVFQAAPAQEAPQTSSLPRNTQRDTQRSTPRTSSPSRVSQRDTPRVMSTQRKNTPLSSPLRATPETLKISAPEDGTHVTPSPCVQDSSLNRTSQRDSSRTPCIQWDNPRASSPNRTTQRDNPRTPCTQRDNPRASSPNRTTQRDNPRTPCTQRDNPRASSPNRTTQRDNPRTPCAQRDNPRAASPNRSTQRDSPRTPCAQRDNPRASSPNRTAQRDNPRTPCAQRDNPRTSCTSQNTPRTPSTQADKTTASCSKWEHLRSACTQRDNPRTFSQGCTQKDNPGPPSPRRATQGSNSRNPSPHRTNKDIPWASFPLRPTQSDSPRTSSPSRTKQNQVPWASISLRPTQGDKPQTSAPTRLAHNDPPQQYSPSLATTSSSSHNPGHSSASRTSSPLHAAPRGAPQTSLESSQPPCTVCIGHRDAPRASSPPRYFQYDPFPFFPDPRSSESESPHHEPPYMPPAVCIGHRDAPRATSPPRHTQFDPFPFLPDTSDADNESPQHDPPQFPPPVCIGYRDAPRASSPPRQFPEPSFFQDLPRASTESLVPSTDSMHEPPHIPTPVCIGHRDAPSFSSPPRQAPEPSLFFQDPPGTSMESLAPSIDSLHGCPLLPPQVCIGHRDAPRASSPPRHPPSDIGLLAPSPPPGSSGSRGSAPPGETRHNLEREEYTMLADLPPPRRLAQRGPEPQAQGSNEGRTRSPGRAEVERLFGQERRKSEAPGAFQTRDEGRSQRPSQAQSQLRRQSSPAP
modifications: N-terminal GFP and C-terminal FLAG fusion on TRIOBP-4, filamentous actin

Source: paper PMC2879707 (2011)
